Assay [1] addresses SARS-CoV-2 spike receptor-binding domain (RBD), wild type (SARS-CoV-2, Wuhan-Hu-1 (wild type), UniProt P0DTC2). Briefly: ELISA.
Assay [2] concerns the target SARS-CoV-2 spike HexaPro (S), prefusion-stabilized trimer (SARS-CoV-2, Wuhan-Hu-1, HexaPro design, stabilised). The assay is described as follows: cell-based or functional assay.

B1: Nb105 (VHH)
VHH: HVQLVESGGGLVQAGGSLRLSCAVSGRTFSTYGMAWFRQAPGKERDFVATITRSGETTLYADSVKGRFTISRDNAKNTVYLQMNSLKIEDTAVYYCAVRRDSSWGYSRDLFEYDYWGQGTQVTVSS
B1: the binding result in assay [1] is given as “binds”.

B2: Nb17 (VHH)
VHH: HVQLVESGGGLVQAGGSLRLSCAASGSIFSSNAMSWYRQAPGKQRELVASITSGGNADYADSVKGRFTISRDKNTVYPEMSSLKPADTAVYYCHAVGQEASAYAPRAYWGQGTQVTVSS
As to B2, the “IC50 of neutralisation of the virus in vitro” value in assay [2] is around 0.025 µg/mL.

B3: Nb34 (VHH)
VHH: DVQLVESGGGLVQAGGSLRLSCAASGFTFSNYVMYWGRQAPGKGREWVSGIDSDGSDTAYASSVKGRFTISRDNAKNTLYLQMNNLKPEDTALYYCVKSKDPYGSPWTRSEFDDYWGQGTQVTVSS
For the molecule B3, the binding result in assay [1] is on record as “binds”.

B4: Nb20 (VHH)
VHH: QVQLVESGGGLVQAGGSLRLSCAVSGAGAHRVGWFRRAPGKEREFVAAIGASGGMTNYLDSVKGRFTISRDNAKNTIYLQMNSLKPQDTAVYYCAARDIETAEYIYWGQGTQVTVSS
For B4, in assay [1], the binding result is given as “binds”.
